Test results reported in publication PMC2887947.
Like-named read-outs stand apart in the source and are kept apart here.

Tests used:
Assay in all cases: EMSA
E. coli H-NS [1] = molecular target: T1, E. coli H-NS (Escherichia coli, UniProt P0ACF8 1-137)
T1 sequence: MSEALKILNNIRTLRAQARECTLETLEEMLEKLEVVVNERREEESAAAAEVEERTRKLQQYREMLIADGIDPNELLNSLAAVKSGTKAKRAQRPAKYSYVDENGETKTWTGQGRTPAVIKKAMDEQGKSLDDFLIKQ

M. tuberculosis H-NS [2] = molecular target: T2, M. tuberculosis H-NS (Mycobacterium tuberculosis H37Rv, UniProt I6YHB0 1-134)
T2 sequence: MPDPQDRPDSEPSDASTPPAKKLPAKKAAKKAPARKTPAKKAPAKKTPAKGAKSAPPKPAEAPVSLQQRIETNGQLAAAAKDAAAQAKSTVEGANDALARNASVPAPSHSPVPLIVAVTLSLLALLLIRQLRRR

M. tuberculosis H-NS [3] = molecular target: T2, M. tuberculosis H-NS; remark: listed apart in the source
E. coli H-NS [4] = molecular target: T1, E. coli H-NS; remark: listed apart in the source
M. tuberculosis H-NS [5] = molecular target: T2, M. tuberculosis H-NS; remark: listed apart in the source
M. tuberculosis H-NS [6] = molecular target: T2, M. tuberculosis H-NS; remark: listed apart in the source

B1: Holliday junction (HJ) (structured_DNA)
DNA 1: GCCGTGATCACCAATGCAGATTGACGAACCTTTGCCCACGT
DNA 2: GACGTGGGCAAAGGTTCGTCAATGGACTGACAGCTGCATGG
DNA 3: GCCATGCAGCTGTCAGTCCATTGTCATGCTAGGCCTACTGC
DNA 4: GGCAGTAGGCCTAGCATGACAATCTGCATTGGTGATCACGG
For B1, the binding result (E. coli H-NS [1]) was “binds” and the Kd (M. tuberculosis H-NS [2]) was ~0.032 µM.

B2: Y-shaped junction (structured_DNA)
DNA 1: B1 DNA 2
DNA 2: B1 DNA 3
For B2, the binding signal (M. tuberculosis H-NS [3]) was ~7 fold higher Kd than HJ.

B3: DNA replication fork (structured_DNA)
DNA 1: B1 DNA 2
DNA 2: B1 DNA 3
DNA 3: GCAGTAGGCCTAGCATGA
DNA 4: CGAACCTTTGCCCACGTC
For B3, the binding result (E. coli H-NS [4]) was “binds” and the binding signal (M. tuberculosis H-NS [5]) was ~6 fold higher Kd than HJ.

B4: dsDNA 40% GC (83 bp) (dsDNA)
DNA 1: GTACTATACGGTTGTACAGTGTTGTTAGTGAGTTGAAGATTGGAAGTAGTTTGCTAGGTGTCTTAGGAGAGAATCGTTAGTGT
DNA 2: ACACTAACGATTCTCTCCTAAGACACCTAGCAAACTACTTCCAATCTTCAACTCACTAACAACACTGTACAACCGTATAGATC
B4: binds (M. tuberculosis H-NS [2]).

B5: dsDNA 70% GC (83 bp) (dsDNA)
DNA 1: GCGGTGGACGGCTGGGTCGGGTGGTGAGTGGGTTGCGATGGAGGTGGTGGGCTAGGGGGCTTAGGGGGGAGTCGGTGGTGG
DNA 2: CCACCACCGACTCCCCCCTAAGCCCCCTAGCCCACCACCTCCCATCGCCAACCCACTCACCACCCGACCCAGCCGTCCACCGC
B5 was tested, and the binding signal (M. tuberculosis H-NS [6]) was ~3 fold higher concentration for 50% binding than 40% GC dsDNA.
